Numbering of substitutions follows the chain as printed. One block for each binder: values may come before it.
Experiments:
[1] = biological target: T1, human mesothelin (MSLN) (human, UniProt Q13421 296-580, limits assumed); test: BLI (Octet), bsAb in 1+1 Fab-scFv-Fc format
T1 construct: Antigen of the Octet KD values

[2] = biological target: T1, human mesothelin (MSLN); test: BLI (Octet), multiple concentrations, bsAb in 1+1 Fab-scFv-Fc format; lower table, column 'human MSLN (M)'
[3] = biological target: T2, human CD28 (human, UniProt P10747 19-152, limits assumed); test: method not stated; Monovalent CD28 KD, table headed 1A7[CD28] H1_L1.71 (aka 180 nM)
T2 construct: also called Cluster of Differentiation 28; Tp44

[4] = biological target: T2, human CD28; test: method not stated; Monovalent CD28 KD, table headed 1A7[CD28] H1.14_L1.71 (aka 37 nM)
[5] = biological target: T1, human mesothelin (MSLN); test: label in the legend box: nominal affinity of the MSLN binding domain (paragraph 422 calls such label values KD); method not stated on the sheet
[6] = biological target: T2, human CD28; test: label in the legend box: nominal affinity of the CD28 binding domain (paragraph 422 calls such label values KD); method not stated on the sheet
[7] = biological target: T1, human mesothelin (MSLN); test: label in the legend box: nominal affinity of the MSLN binding domain (paragraph 422 calls such label values KD); method not stated on the sheet; remark: listed apart in the source
[8] = biological target: T2, human CD28; test: label in the legend box: nominal affinity of the CD28 binding domain (paragraph 422 calls such label values KD); method not stated on the sheet; remark: listed apart in the source

Kd [3]: 200 nM
B3: XENP39554 (bispecific antibody)
heavy: QVQLVQSGAEVKKPGASVKVSCKASGYTFTSYWMHWVRQAPGQGLEWMGMIHPNSDNTIYYEKFQGRVTMTVDKSISTAYMELSRLRSDDTAVYYCAIIITPVVPKFDYWGQGTLVTVSSASTKGPSVFPLAPSSKSTSGGTAALGCLVKDYFPEPVTVSWNSGALTSGVHTFPAVLQSSGLYSLSSVVTVPSSSLGTQTYICNVNHKPSDTKVDKKVEPKSCDKTHTCPPCPAPPVAGPSVFLFPPKPKDTLMISRTPEVTCVVVDVKHEDPEVKFNWYVDGVEVHNAKTKPREEEYNSTYRVVSVLTVLHQDWLNGKEYKCKVSNKALPAPIEKTISKAKGQPREPQVYTLPPSREEMTKNQVSLTCDVSGFYPSDIAVEWESDGQPENNYKTTPPVLDSDGSFFLYSKLTVDKSRWEQGDVFSCSVLHEALHSHYTQKSLSLSPGK
scFv-Fc: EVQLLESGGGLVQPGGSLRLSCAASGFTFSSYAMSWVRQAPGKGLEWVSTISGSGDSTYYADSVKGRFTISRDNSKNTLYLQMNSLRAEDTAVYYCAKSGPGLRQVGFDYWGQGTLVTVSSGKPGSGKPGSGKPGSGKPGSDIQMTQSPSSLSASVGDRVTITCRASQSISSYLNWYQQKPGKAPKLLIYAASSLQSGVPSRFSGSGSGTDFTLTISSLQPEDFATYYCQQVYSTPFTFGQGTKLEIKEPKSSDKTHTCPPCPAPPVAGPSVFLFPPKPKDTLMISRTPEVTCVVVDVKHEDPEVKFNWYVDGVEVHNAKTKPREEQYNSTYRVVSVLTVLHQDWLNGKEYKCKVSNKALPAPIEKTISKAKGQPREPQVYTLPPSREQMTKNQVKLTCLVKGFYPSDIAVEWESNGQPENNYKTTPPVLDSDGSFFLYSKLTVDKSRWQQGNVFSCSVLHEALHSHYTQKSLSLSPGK
light: DIVMTQSPDSLAVSLGERATINCKASHDVGTSVAWYQQKPGQSPKLLIYWASTRHTGVPDRFTGSGSGTDFTLTISSLQAEDVAVYFCQQYSSYPLTFGAGTKLEIKRTVAAPSVFIFPPSDEQLKSGTASVVCLLNNFYPREAKVQWKVDNALQSGNSQESVTEQDSKDSTYSLSSTLTLSKADYEKHKVYACEVTHQGLSSPVTKSFNRGEC
notes: also called H1_L1.71

Kd [1]: 30 nM
Response [1]: 0.915
koff [1]: 0.0147 s⁻¹
kon [1]: 491000 M⁻¹ s⁻¹
Kd [2]: 9.2 nM
B5: XENP32552 (bispecific antibody)
chain 1: B3 heavy with M50W, L430M, S436N
chain 2: not shown
chain 3: B3 light

Kd [4]: 660 nM
B9: XENP39533 (bispecific antibody)
heavy 1: B3 heavy
heavy 2: not shown
light 1: B3 light
light 2: B3 light
notes: also called H1.14_L1.71

Kd [3]: 1200 nM
B11: XENP44468 (bispecific antibody)
chain 1: B3 heavy
chain 2: not shown
chain 3: B3 light
notes: also called 2+1 Fab2-scFv-Fc MSLN x CD28 bsAb

Kd [7]: 90 nM
Kd [8]: 180 nM
B12: XENP44479 (bispecific antibody)
heavy: QVQLVQSGAEVKKPGASVKVSCKASGYTFTSYWMHWVRQAPGQGLEWMGWIHPNSDNTIYYEKFQGRVTMTVDKSISTAYMELSRLRSDDTAVYYCAIIITPVVPKFDYWGQGTLVTVSSASTKGPSVFPLAPSSKSTSGGTAALGCLVKDYFPEPVTVSWNSGALTSGVHTFPAVLQSSGLYSLSSVVTVPSSSLGTQTYICNVNHKPSDTKVDKKVEPKSCGGGGSGGGGSQVQLVQSGAEVKKPGASVKVSCKASGYTFTSYWMHWVRQAPGQGLEWMGWIHPNSDNTIYYEKFQGRVTMTVDKSISTAYMELSRLRSDDTAVYYCAIIITPVVPKFDYWGQGTLVTVSSASTKGPSVFPLAPSSKSTSGGTAALGCLVKDYFPEPVTVSWNSGALTSGVHTFPAVLQSSGLYSLSSVVTVPSSSLGTQTYICNVNHKPSDTKVDKKVEPKSCDKTHTCPPCPAPPVAGPSVFLFPPKPKDTLMISRTPEVTCVVVDVKHEDPEVKFNWYVDGVEVHNAKTKPREEEYNSTYRVVSVLTVLHQDWLNGKEYKCKVSNKALPAPIEKTISKAKGQPREPQVYTLPPSREEMTKNQVSLTCDVSGFYPSDIAVEWESDGQPENNYKTTPPVLDSDGSFFLYSKLTVDKSRWEQGDVFSCSVLHEALHSHYTQKSLSLSPGK
scFv-Fc: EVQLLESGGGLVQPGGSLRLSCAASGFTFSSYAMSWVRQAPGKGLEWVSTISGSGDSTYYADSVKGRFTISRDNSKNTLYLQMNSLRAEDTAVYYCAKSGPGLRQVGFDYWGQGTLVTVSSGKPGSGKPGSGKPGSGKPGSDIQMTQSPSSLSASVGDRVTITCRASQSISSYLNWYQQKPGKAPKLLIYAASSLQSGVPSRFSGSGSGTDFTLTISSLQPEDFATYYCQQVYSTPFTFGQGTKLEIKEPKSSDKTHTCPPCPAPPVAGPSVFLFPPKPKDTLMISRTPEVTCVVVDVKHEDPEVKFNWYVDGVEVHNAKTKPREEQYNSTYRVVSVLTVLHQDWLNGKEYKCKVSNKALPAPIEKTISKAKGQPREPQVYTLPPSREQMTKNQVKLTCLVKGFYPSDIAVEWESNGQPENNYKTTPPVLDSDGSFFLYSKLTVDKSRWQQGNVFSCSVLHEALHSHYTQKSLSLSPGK
light 1: B3 light with T31Q
light 2: B3 light with T31Q
notes: also called XENP44479 MSLN (90 nM) x CD28 (180 nM) 2+1 Fab2-Fc x scFv-Fc

The next lines start with the binder.

B1: XENP32567 (bispecific antibody)
chain 1: B3 heavy with L430M, S436N
chain 2: not shown
chain 3: B3 light with S92Y
Kd [1]: 15.3 nM
Response [1]: 0.953
koff [1]: 0.00887 s⁻¹
kon [1]: 578000 M⁻¹ s⁻¹
Kd [2]: 3.9 nM

B2: XENP39534 (bispecific antibody)
heavy 1: B3 heavy
heavy 2: not shown
light 1: B3 light
light 2: B3 light
notes: also called H1_L1.71
Kd [3]: 460 nM

B4: XENP44475 (bispecific antibody)
chain 1: B12 heavy with W50M, W283M
chain 2: not shown
chain 3: B3 light
notes: also called 2+1 Fab2-Fc x scFv-Fc MSLN x CD28 bsAb
Kd [4]: 740 nM

B6: XENP44469 (bispecific antibody)
chain 1: B3 heavy
chain 2: not shown
chain 3: B3 light
notes: as for B11
Kd [4]: 580 nM

B7: XENP39534 (bispecific antibody)
heavy 1: B3 heavy
heavy 2: not shown
light 1: B3 light
light 2: B3 light
notes: also called XENP39534 MSLN (0.3 nM) x CD28 (180 nM) 2+1 mAb-scFv
Kd [5]: 0.3 nM
Kd [6]: 180 nM

B8: XENP44474 (bispecific antibody)
chain 1: B12 heavy with W50M, W283M
chain 2: not shown
chain 3: B3 light
notes: as for B4
Kd [3]: 4900 nM

B10: XENP39570 (bispecific antibody)
heavy: B3 heavy with M50W
scFv-Fc: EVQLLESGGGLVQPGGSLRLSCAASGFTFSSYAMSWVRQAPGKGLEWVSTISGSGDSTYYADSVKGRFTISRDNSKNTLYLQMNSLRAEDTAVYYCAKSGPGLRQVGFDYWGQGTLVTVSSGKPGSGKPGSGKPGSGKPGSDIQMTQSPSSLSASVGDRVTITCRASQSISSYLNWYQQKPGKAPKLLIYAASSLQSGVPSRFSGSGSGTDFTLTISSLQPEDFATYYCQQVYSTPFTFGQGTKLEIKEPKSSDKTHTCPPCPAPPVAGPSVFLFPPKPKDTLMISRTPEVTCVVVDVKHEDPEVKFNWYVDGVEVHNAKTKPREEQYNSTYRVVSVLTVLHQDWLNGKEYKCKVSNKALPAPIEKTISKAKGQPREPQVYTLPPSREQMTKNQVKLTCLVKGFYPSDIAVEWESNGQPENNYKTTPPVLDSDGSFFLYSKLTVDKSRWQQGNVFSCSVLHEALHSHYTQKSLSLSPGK
light: B3 light with T31Q
notes: also called XENP39570 MSLN (90 nM) x CD28 (180 nM) 1+1 Fab-scFv-Fc
Kd [5]: 90 nM
Kd [6]: 180 nM

Reference: patent publication US20230340128A1 (Xencor, published 2023)
